Test results as given in US11162953B2, “Protein binding domains stabilizing functional conformational states of GPCRS and uses thereof” (priority 2010, dated 2021).
Entries after “also recorded” stand apart in the source; their conditions may differ.

What was measured:
β2AR [1] = molecular target: T1, β2AR (Homo sapiens, UniProt P07550); test: Temperature-induced aggregation of agonist-bound β2AR analyzed by SEC; set-up: made in house; details: isoproterenol 10 μM, 2:1 molar excess of Nb80, 10 minutes at increasing temperatures
Description: (§1) The effect of conformational selective nanobodies on the thermostability and the subsequent aggregation of the β2AR receptor was analyzed using a fluorescent thermal stability assay (FIG. 13) and size exclusion chromatography (FIGS. 14A and 14B).
We also analyzed the effect of Nb80 on the thermal unfolding and aggregation of the agonist-bound receptor by size exclusion chromatography (SEC). For this experiment, dodecylmaltoside-solubilized receptor was pre-incubated with isoproterenol (10 μM) in the presence or absence of a 2:1 molar excess of Nb80 for 45 minutes at RT. Samples were next incubated for 10 minutes at increasing temperatures and subsequently analyzed by SEC (FIGS. 14A and 14B).

β2AR [2] = test: Size exclusion chromatography of nanobody with purified agonist- or inverse agonist-bound β2AR; format: binding, human; details: 20 μM β2AR bound to agonist or inverse agonist, 40 μM nanobody
Description: The mixture was then analyzed by Size Exclusion Chromatography (SEC), which separates protein on the basis of size. Seven of the nanobodies bound to purified β2AR and migrated as a complex on SEC only in the presence of agonist and not an inverse agonist (an example is shown in FIG. 1, Panel a, FIGS. 3A, 3B, and FIG. 4).
Agonist selective nanobodies were identified by size exclusion chromatography following incubation of 20 μM agonist or inverse agonist-(carazolol-) bound β2AR-365N for one hour at RT in the absence or presence of 40 μM nanobody.

dopamine D1 receptor = dopamine D1 receptor (Homo sapiens, UniProt P21728); test: Effect of Nb80 on unrelated receptor; format: binding; details: data not shown
Chain of dopamine D1 receptor (P21728 whole entry, species assumed): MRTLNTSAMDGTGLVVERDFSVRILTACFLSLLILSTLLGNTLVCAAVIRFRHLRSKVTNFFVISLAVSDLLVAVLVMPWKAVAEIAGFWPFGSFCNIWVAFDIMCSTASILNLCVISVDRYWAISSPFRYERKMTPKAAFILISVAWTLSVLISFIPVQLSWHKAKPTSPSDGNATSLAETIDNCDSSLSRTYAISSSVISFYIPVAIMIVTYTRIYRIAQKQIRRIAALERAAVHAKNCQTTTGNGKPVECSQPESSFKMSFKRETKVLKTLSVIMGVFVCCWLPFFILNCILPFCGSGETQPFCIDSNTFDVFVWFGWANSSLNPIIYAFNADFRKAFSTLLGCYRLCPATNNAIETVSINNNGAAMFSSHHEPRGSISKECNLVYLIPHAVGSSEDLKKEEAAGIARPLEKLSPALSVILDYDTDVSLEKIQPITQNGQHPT

β2AR [3] = molecular target: T1, β2AR; format: binding; details: full-length β2AR membranes, Nb80 versus irrelevant nanobody
β2AR-T4L [4] = molecular target: T2, β2AR-T4L (Homo sapiens, UniProt P07550, DEL231-262, form not given); test: [3H]-DHA competition binding on β2AR-T4L reconstituted in HDL particles, with or without Nb80; details: β2AR-T4L/HDL
T2 construct: The β2AR and β2AR-T4L (both truncated at position 365) purified as previously described (Rosenbaum et al. 2007); fused on or other part: T4 lysozyme inserted in place of the third intracellular loop between TM5 and TM6 as a crystallisation handle (published construct: residues 2-161, C54T/C97A); Reconstituted in HDL particles

β2AR-T4L [5] = test: as above; set-up: species or system human; details: β2AR-T4L/HDL + Nb80 versus alone
β2AR [6] = test: [3H]-DHA competition binding on β2AR reconstituted in HDL particles, with or without Gs or Nb80; set-up: species or system human; details: β2AR/HDL + Nb80 versus alone
β2AR [7] = molecular target: T1, β2AR; test: as above; set-up: recombinant β2AR truncated at Gly365 (β2AR-365); made in house; host or cells: Sf9 insect cells; details: β2AR/HDL
β2AR [8] = molecular target: T1, β2AR; test: Monobromobimane fluorescence of purified mBBr-labeled β2AR; format: biochemical; set-up: made in house; details: 1 μM nanobody, β2AR bound to full agonist isoproterenol
Excerpt: To investigate the effect of nanobodies on movement of the cytoplasmic domain of TM6 we labeled purified β2AR at C265 with monobromobimane (mBB-β2AR). […] In mBB-β2AR, the addition of agonist together with G protein results in larger fluorescent changes than either agonist or G protein alone. This is compatible with the cooperative interactions observed in agonist competition binding assays (Yao et al. 2009).
Purified β2AR was reacted with 1:1 equivalent of monobromobimane (mBBr, Invitrogen) in 100 mM NaCl, 20 mM HEPES, pH 7.5, 0.1% dodecyl maltoside and incubated overnight on ice in the dark. The fluorophore-labeled receptor was purified right before use by gel filtration on a desalting column equilibrated with the same buffer. […] All experiments were performed at 25° C. […] To determine the effect of nanobodies and ligands, three individual labeled protein samples were incubated with 1 μM nanobody or 10 μM Isoproterenol or both. Emission spectra of the samples were taken after 1 hour incubation.

human β1AR = human β1AR (Homo sapiens, UniProt P08588); test: [3H]-DHA competition binding on β1AR with or without Nb80
Chain of human β1AR (P08588 whole entry): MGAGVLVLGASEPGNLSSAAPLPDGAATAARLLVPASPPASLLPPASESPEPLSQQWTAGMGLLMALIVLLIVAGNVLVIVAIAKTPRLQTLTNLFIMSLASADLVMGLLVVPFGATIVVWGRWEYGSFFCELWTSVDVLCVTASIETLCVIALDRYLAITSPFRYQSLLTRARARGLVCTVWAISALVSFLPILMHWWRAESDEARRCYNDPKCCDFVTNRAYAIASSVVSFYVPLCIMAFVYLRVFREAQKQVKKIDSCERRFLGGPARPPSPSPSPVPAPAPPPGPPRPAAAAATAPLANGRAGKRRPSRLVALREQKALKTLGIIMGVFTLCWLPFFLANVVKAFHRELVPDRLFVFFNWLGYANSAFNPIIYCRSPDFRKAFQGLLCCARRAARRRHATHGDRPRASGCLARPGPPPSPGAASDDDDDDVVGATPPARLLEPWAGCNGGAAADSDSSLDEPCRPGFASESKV
Excerpt: Active state stabilizing Nanobodies that are cross-reactive to related receptors can be used as a tool to stabilize a conformational state of those related receptors. […] Using the PISA server (Krissinel & Henrick, 2007) and based on the crystal structure of the Nb80-β2AR complex, 30 β2AR AA residues were identified to interact with Nb80 in the β2AR-Nb80 interface. […] The remaining interface residues are lysines in β2AR and have been substituted by arginines in β1AR corresponding to conserved substitutions (shown in grey boxes in FIG. 17). It thus appears that both receptors share a very similar binding site for Nb80. Based on this analysis, we also measured the effect of Nb80 on the affinity of β1AR for the agonist isoproterenol and the inverse agonist […] (FIG. 18).

β2AR [9] = molecular target: T1, β2AR; test: Fluorescent (CPM) thermal stability assay of detergent-solubilized agonist-bound β2AR; set-up: made in house
Description: as §1
The fluorescent thermal stability assay makes use of the thiol-specific fluorochrome N-[4-(7-diethylamino-4-methyl-3-coumarinyl)phenyl]maleimide (CPM) to measure the chemical reactivity of the native cysteines embedded in the protein interior as a sensor for the overall integrity of the folder state of membrane proteins (Alexandrov et al. 2008). For the fluorescent thermal stability assay, detergent-solubilized receptor (in 0.1% dodecylmaltoside, 100 mM NaCl and 20 mM Hepes pH 7.5) was pre-incubated with isoproterenol (10 μM) in the presence or absence of a 2:1 molar excess of Nb80 for one hour at RT. Samples were then mixed with CPM fluorophore and incubated for two minutes at temperatures ranging from 10° C. to 94° C. and fluorescence emission was collected. […] Unfolding transitions could be described by a simple two-state model, including the native (folded) and the denaturated state, representing the lower and upper plateaus of the melting curves.

β2AR [10] = molecular target: T1, β2AR; details: agonist competition binding, Sf9 membranes
Description: The IC50 values used for calculations of Ki values were obtained from means of pIC50 values determined by nonlinear regression analysis using Prism (GraphPad Software, San Diego, Calif.) and the s.e. interval from pIC50±s.e.

B1: NB80: β2AR-specific nanobody, SEQ ID NO:4; lead nanobody stabilizing the active state (protein, listed as Lama glama)
VHH: QVQLQESGGGLVQAGGSLRLSCAASGSIFSINTMGWYRQAPGKQRELVAAIHSGGSTNYANSVKGRFTISRDNAANTVYLQMNSLKPEDTAVYYCNVKDYGAVLYEYDYWGQGTQVTVSS
effect on temperature-induced aggregation of agonist-bound receptor (SEC) (β2AR [1]): protects the agonist-bound receptor against temperature-induced aggregation
complex formation with β2AR on SEC (β2AR [2]): β2AR-agonist-Nb80 complex formation
effect of Nb80 on unrelated receptor (dopamine D1 receptor): No such effect
effect of Nb80 on β2AR affinity for ligands (β2AR [3]): increases β2AR affinity for agonists but not for antagonists
effect of Nb80 on affinity for the inverse agonist ICI-118,551 (β2AR-T4L [4]): does not increase the affinity
increase of isoproterenol affinity in the presence of Nb80 (β2AR-T4L [5]): 60 fold
increase of isoproterenol affinity in the presence of Nb80 (β2AR [6]): 95 fold
effect of Nb80 on affinity for the inverse agonist ICI-118,551 (β2AR [7]): does not increase the affinity; also recorded: little effect
nanobody-induced change of mBBr fluorescence (β2AR [8]): larger changes were observed when both agonist and nanobody were added together; also recorded: stabilizes a more active state of the β2AR
effect of Nb80 on affinity of β1AR for CGP20712A (human β1AR): does not change the affinity
effect of Nb80 on affinity of β1AR for the agonist isoproterenol (human β1AR): increased affinity
apparent melting temperature for β2AR with Nb80 (β2AR [9]; DDM-solubilized isoproterenol-bound β2AR, 12.0° C. without Nb80): 24 °C
increase of melting temperature (Tm) of the agonist-bound receptor (β2AR [9]; isoproterenol 10 μM, 2:1 molar excess of Nb80): 12 °C
enhancement of the affinity of β2AR for the agonist isoproterenol in the presence of nanobody (β2AR [10]): two- to thirty-fold
